Data reported in paper PMC4405707.

Molecular target: TARP γ-2 (rat) (UniProt Q71RJ2)
Test: co-IP; GluA2 variants transfected into HEK293T cells stably expressing TARP γ-2; proteins extracted under mild detergent conditions; IP with an anti-γ-2 antibody, blot probed with polyclonal GluA2 antibody; amounts normalized to the input

TARP γ-2 (rat), sequence (Q71RJ2 whole entry): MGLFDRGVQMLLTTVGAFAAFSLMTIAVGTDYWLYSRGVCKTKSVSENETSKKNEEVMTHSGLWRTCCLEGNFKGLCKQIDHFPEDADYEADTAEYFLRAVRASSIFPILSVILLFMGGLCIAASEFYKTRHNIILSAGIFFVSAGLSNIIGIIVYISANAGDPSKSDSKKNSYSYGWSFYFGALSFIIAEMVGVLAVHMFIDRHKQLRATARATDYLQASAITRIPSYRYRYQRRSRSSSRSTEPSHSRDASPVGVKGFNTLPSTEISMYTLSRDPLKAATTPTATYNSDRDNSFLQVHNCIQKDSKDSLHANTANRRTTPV
GluA2i-ΔNTD (flip, R607), sequence (P19491 other isoform, or with tags, fused parts or gaps, stated change not applied): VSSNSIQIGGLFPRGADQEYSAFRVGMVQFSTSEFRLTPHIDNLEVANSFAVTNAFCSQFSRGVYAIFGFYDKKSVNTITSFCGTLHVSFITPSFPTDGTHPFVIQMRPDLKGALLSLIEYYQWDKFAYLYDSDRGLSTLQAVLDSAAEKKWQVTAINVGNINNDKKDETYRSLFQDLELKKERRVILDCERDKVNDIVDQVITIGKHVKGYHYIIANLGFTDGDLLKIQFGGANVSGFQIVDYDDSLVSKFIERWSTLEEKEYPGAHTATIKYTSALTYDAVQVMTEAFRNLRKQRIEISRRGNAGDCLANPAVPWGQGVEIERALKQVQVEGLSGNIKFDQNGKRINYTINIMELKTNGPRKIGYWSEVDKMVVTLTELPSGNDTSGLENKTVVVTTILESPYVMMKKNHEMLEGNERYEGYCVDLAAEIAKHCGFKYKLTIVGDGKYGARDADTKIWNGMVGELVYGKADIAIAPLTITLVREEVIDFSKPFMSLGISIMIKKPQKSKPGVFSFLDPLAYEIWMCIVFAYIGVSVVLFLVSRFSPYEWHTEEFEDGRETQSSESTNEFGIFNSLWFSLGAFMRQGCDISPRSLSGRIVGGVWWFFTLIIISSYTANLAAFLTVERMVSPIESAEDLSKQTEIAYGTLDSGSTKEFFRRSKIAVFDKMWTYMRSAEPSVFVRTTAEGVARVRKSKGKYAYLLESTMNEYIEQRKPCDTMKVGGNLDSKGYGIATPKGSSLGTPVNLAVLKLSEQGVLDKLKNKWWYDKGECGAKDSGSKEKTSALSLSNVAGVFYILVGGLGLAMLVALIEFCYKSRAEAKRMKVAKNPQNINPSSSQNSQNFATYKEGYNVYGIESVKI
GluA2o-R607 ΔNTD (flop Δ-NTD mutant), sequence (P19491 other isoform, or with tags, fused parts or gaps, stated change not applied): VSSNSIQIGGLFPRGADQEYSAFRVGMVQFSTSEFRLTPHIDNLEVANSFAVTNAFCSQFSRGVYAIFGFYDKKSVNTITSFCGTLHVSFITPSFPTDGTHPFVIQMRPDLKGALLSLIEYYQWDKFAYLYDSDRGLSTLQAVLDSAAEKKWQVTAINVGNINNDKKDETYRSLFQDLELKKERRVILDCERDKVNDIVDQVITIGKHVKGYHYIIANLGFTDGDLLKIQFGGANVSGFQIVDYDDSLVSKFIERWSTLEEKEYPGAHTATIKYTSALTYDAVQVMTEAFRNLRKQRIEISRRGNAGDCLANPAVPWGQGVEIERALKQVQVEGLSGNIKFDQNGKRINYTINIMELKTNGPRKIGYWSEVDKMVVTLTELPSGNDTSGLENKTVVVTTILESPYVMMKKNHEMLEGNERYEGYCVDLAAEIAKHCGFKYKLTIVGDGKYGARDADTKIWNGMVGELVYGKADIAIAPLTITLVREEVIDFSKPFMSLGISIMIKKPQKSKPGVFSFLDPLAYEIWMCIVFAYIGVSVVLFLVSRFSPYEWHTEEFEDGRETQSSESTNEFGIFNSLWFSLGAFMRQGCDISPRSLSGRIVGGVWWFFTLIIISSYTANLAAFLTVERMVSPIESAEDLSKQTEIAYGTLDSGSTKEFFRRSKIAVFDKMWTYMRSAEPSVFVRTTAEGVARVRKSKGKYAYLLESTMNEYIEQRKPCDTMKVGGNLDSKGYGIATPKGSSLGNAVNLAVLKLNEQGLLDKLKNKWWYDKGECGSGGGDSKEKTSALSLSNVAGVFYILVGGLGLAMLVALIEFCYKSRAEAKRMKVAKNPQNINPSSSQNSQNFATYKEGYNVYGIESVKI

| Substance | fold reduction of coIP by the Q to R switch (ΔNTD R607 against ΔNTD Q607) | ratio of IPed GluA2i WT to GluA2i-ΔNTD, normalized to the input | fold less efficiently precipitated than the flip ΔNTD counterpart |
| --- | --- | --- | --- |
| GluA2i-ΔNTD (flip, R607) (from UniProt P19491-2 22-883) (receptor) | 2.2 fold | 2.9 fold |  |
| GluA2o-R607 ΔNTD (flop Δ-NTD mutant) (from UniProt P19491 22-883) (receptor) |  |  | 2.9 fold |
